Laboratory results: US20180155451A1 (published 2018)

T1: FcγRIIa R (human, UniProt P12318 34-217)
T1 construct: extracellular domain; also called FcgRIIa R type; 2aR
T1 sequence (looked up): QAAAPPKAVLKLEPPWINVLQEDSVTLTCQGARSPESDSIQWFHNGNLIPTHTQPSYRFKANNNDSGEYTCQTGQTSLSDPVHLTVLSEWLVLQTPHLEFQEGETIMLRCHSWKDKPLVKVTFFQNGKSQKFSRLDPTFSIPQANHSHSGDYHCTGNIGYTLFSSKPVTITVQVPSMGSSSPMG

B1: GpH7-A5/GpH7-B3 variant I336_08L/GpL16-k0 (antibody, human IgG1, kappa)
heavy 1: not shown
heavy 2: not shown
light: DIVMTQSPLSLPVTPGEPASISCQASESLVHSNRNTYLHWYLQKPGQSPQLLIYKVSNRFSGVPDRFSGSGSGTDFTLKISRVEAEDVGVYYCSQNTHVPPTFGQGTKVEIERTVAAPSVFIFPPSDEQLKSGTASVVCLLNNFYPREAKVQWKVDNALQSGNSQESVTEQDSKDSTYSLSSTLTLSKADYEKHKVYACEVTHQGLSSPVTKSFNRGEC
notes: also called He Ab I336_08L
B2: GpH7-A5/GpH7-B3 variant E333_04F/GpL16-k0 (antibody, human IgG1, kappa)
heavy 1: not shown
heavy 2: not shown
light: B1 light
notes: also called He Ab E333_04F
B3: GpH7-A5/GpH7-B3 variant A330_05P/GpL16-k0 (antibody, human IgG1, kappa)
heavy 1: not shown
heavy 2: not shown
light: B1 light
notes: also called He Ab A330_05P
B4: GpH7-A5/GpH7-B3 variant A330_01G/GpL16-k0 (antibody, human IgG1, kappa)
heavy 1: not shown
heavy 2: not shown
light: B1 light
notes: also called He Ab A330_01G
B5: GpH7-A5/GpH7-B3 variant H268_15Y/GpL16-k0 (antibody, human IgG1, kappa)
heavy 1: not shown
heavy 2: not shown
light: B1 light
notes: also called He Ab H268_15Y
B6: GpH7-A5/GpH7-B3 variant H268_12R/GpL16-k0 (antibody, human IgG1, kappa)
heavy 1: not shown
heavy 2: not shown
light: B1 light
notes: also called He Ab H268_12R
B7: GpH7-A5/GpH7-B3 variant K326_04F/GpL16-k0 (antibody, human IgG1, kappa)
heavy 1: not shown
heavy 2: not shown
light: B1 light
notes: also called He Ab K326_04F
B8: GpH7-A5/GpH7-B3 variant K326_15Y/GpL16-k0 (antibody, human IgG1, kappa)
heavy 1: not shown
heavy 2: not shown
light: B1 light
notes: also called He Ab K326_15Y
B9: GpH7-A5/GpH7-B3 variant G237_04F/GpL16-k0 (antibody, human IgG1, kappa)
heavy 1: not shown
heavy 2: not shown
light: B1 light
notes: also called He Ab G237_04F
B10: GpH7-A5/GpH7-B3 variant E333_07I/GpL16-k0 (antibody, human IgG1, kappa)
heavy 1: not shown
heavy 2: not shown
light: B1 light
notes: also called He Ab E333_07I
B11: GpH7-A5/GpH7-B3 variant I336_06M/GpL16-k0 (antibody, human IgG1, kappa)
heavy 1: not shown
heavy 2: not shown
light: B1 light
notes: also called He Ab I336_06M
B12: GpH7-A5/GpH7-B3 variant K326_18N/GpL16-k0 (antibody, human IgG1, kappa)
heavy 1: not shown
heavy 2: not shown
light: B1 light
notes: also called He Ab K326_18N
B13: GpH7-A5/GpH7-B3 variant E269_09D/GpL16-k0 (antibody, human IgG1, kappa)
heavy 1: not shown
heavy 2: not shown
light: B1 light
notes: also called He Ab E269_09D
B14: GpH7-A5/GpH7-B3 variant A330_19Q/GpL16-k0 (antibody, human IgG1, kappa)
heavy 1: not shown
heavy 2: not shown
light: B1 light
notes: also called He Ab A330_19Q
B15: GpH7-A5/GpH7-B3 variant K326_07I/GpL16-k0 (antibody, human IgG1, kappa)
heavy 1: not shown
heavy 2: not shown
light: B1 light
notes: also called He Ab K326_07I
B16: GpH7-A5/GpH7-B3 variant G237_08L/GpL16-k0 (antibody, human IgG1, kappa)
heavy 1: not shown
heavy 2: not shown
light: B1 light
notes: also called He Ab G237_08L
B17: GpH7-A5/GpH7-B3 variant I332_06M/GpL16-k0 (antibody, human IgG1, kappa)
heavy 1: not shown
heavy 2: not shown
light: B1 light
notes: also called He Ab I332_06M
B18: GpH7-A5/GpH7-B3 variant E333_05P/GpL16-k0 (antibody, human IgG1, kappa)
heavy 1: not shown
heavy 2: not shown
light: B1 light
notes: also called He Ab E333_05P
B19: GpH7-A5/GpH7-B3 variant K326_12R/GpL16-k0 (antibody, human IgG1, kappa)
heavy 1: not shown
heavy 2: not shown
light: B1 light
notes: also called He Ab K326_12R
B20: GpH7-A5/GpH7-B3 variant K326_03V/GpL16-k0 (antibody, human IgG1, kappa)
heavy 1: not shown
heavy 2: not shown
light: B1 light
notes: also called He Ab K326_03V
B21: GpH7-A5/GpH7-B3 variant H268_05P/GpL16-k0 (antibody, human IgG1, kappa)
heavy 1: not shown
heavy 2: not shown
light: B1 light
notes: also called He Ab H268_05P
B22: GpH7-A5/GpH7-B3 variant G237_19Q/GpL16-k0 (antibody, human IgG1, kappa)
heavy 1: not shown
heavy 2: not shown
light: B1 light
notes: also called He Ab G237_19Q
B23: GpH7-A5/GpH7-B3 variant A327_09D/GpL16-k0 (antibody, human IgG1, kappa)
heavy 1: not shown
heavy 2: not shown
light: B1 light
notes: also called He Ab A327_09D
B24: GpH7-A5/GpH7-B3 variant K326_20W/GpL16-k0 (antibody, human IgG1, kappa)
heavy 1: not shown
heavy 2: not shown
light: B1 light
notes: also called He Ab K326_20W
B25: GpH7-A5/GpH7-B3 variant H268_20W/GpL16-k0 (antibody, human IgG1, kappa)
heavy 1: not shown
heavy 2: not shown
light: B1 light
notes: also called He Ab H268_20W
B26: GpH7-A5/GpH7-B3 variant G237_13S/GpL16-k0 (antibody, human IgG1, kappa)
heavy 1: not shown
heavy 2: not shown
light: B1 light
notes: also called He Ab G237_13S
B27: GpH7-A5/GpH7-B3 variant I336_18N/GpL16-k0 (antibody, human IgG1, kappa)
heavy 1: not shown
heavy 2: not shown
light: B1 light
notes: also called He Ab I336_18N
B28: GpH7-A5/GpH7-B3 variant H268_03V/GpL16-k0 (antibody, human IgG1, kappa)
heavy 1: not shown
heavy 2: not shown
light: B1 light
notes: also called He Ab H268_03V
B29: GpH7-A5/GpH7-B3 variant G237_20W/GpL16-k0 (antibody, human IgG1, kappa)
heavy 1: not shown
heavy 2: not shown
light: B1 light
notes: also called He Ab G237_20W

What follows are binders tested against T1, FcγRIIa R (assay: SPR Biacore; vs GpH7-A5/GpH7-B3/GpL16-k0 =100).

| He/Con_2aR | Binder |
| --- | --- |
| 110 % of control | B1 |
| 102 % of control | B2 |
| 115 % of control | B3 |
| 109 % of control | B4 |
| 110 % of control | B5 |
| 105 % of control | B6 |
| 135 % of control | B7 |
| 136 % of control | B8 |
| 126 % of control | B9 |
| 104 % of control | B10 |
| 106 % of control | B11 |
| 115 % of control | B12 |
| 105 % of control | B13 |
| 104 % of control | B14 |
| 147 % of control | B15 |
| 133 % of control | B16 |
| 109 % of control | B17 |
| 105 % of control | B18 |
| 103 % of control | B19 |
| 141 % of control | B20 |
| 106 % of control | B21 |
| 121 % of control | B22 |
| 124 % of control | B23 |
| 131 % of control | B24 |
| 113 % of control | B25 |
| 121 % of control | B26 |
| 104 % of control | B27 |
| 109 % of control | B28 |
| 138 % of control | B29 |
